Among the data in US20240400708A1 are Kd values, retold here.

Test [1] addresses feline FcRn complex (FcRn-α subunit and β-microglobulin) (feline). Kind of test: SPR (Biacore), FcRn on SA chip, pH 7.4.
Test [2] has the same target. Kind of test: SPR (Biacore), FcRn on SA chip, pH 6.

B1: feline IgG1a mutant ID No. 252: S428M, S434F (antibody, part only; not given: variable domains and light chain, not shown: another chain or arm of the molecule)
constant: ASTTAPSVFPLAPSCGTTSGATVALACLVLGYFPEPVTVSWNSGALTSGVHTFPAVLQASGLYSLSSMVTVPSSRWLSDTFTCNVAHPPSNTKVDKTVRKTDHPPGPKPCDCPKCPPPEMLGGPSIFIFPPKPKDTLSISRTPEVTCLVVDLGPDDSDVQITWFVDNTQVYTAKTSPREEQFNSTYRVVSVLPILHQDWLKGKEFKCKVNSKSLPSPIERTISKAKGQPHEPQVYVLPPAQEELSRNKVSVTCLIKSFHPPDIAVEWEITGQPEPENNYRTTPPQLDSDGTYFVYSKLSVDRSHWQRGNTYTCSVMHEALHFHHTQKSLTQSPGK
Turning to B1, the Kd stood at 27.4 nM in test [1] and 0.19 nM in test [2].

B2: feline IgG1a mutant ID No. 276: S252R, S434R, Q311W (antibody, part only; not given: variable domains and light chain, not shown: another chain or arm of the molecule)
constant: ASTTAPSVFPLAPSCGTTSGATVALACLVLGYFPEPVTVSWNSGALTSGVHTFPAVLQASGLYSLSSMVTVPSSRWLSDTFTCNVAHPPSNTKVDKTVRKTDHPPGPKPCDCPKCPPPEMLGGPSIFIFPPKPKDTLRISRTPEVTCLVVDLGPDDSDVQITWFVDNTQVYTAKTSPREEQFNSTYRVVSVLPILHWDWLKGKEFKCKVNSKSLPSPIERTISKAKGQPHEPQVYVLPPAQEELSRNKVSVTCLIKSFHPPDIAVEWEITGQPEPENNYRTTPPQLDSDGTYFVYSKLSVDRSHWQRGNTYTCSVSHEALHRHHTQKSLTQSPGK
Consider B2, for which the dissociation constant (Kd) in test [1] worked out at 14800 nM; in test [2], 28.7 nM.

B3: feline IgG1a mutant ID No. 269: S252F, S434R, Q311W (antibody, part only; not given: Variable domains, not shown: another chain or arm of the molecule)
constant: ASTTAPSVFPLAPSCGTTSGATVALACLVLGYFPEPVTVSWNSGALTSGVHTFPAVLQASGLYSLSSMVTVPSSRWLSDTFTCNVAHPPSNTKVDKTVRKTDHPPGPKPCDCPKCPPPEMLGGPSIFIFPPKPKDTLFISRTPEVTCLVVDLGPDDSDVQITWFVDNTQVYTAKTSPREEQFNSTYRVVSVLPILHWDWLKGKEFKCKVNSKSLPSPIERTISKAKGQPHEPQVYVLPPAQEELSRNKVSVTCLIKSFHPPDIAVEWEITGQPEPENNYRTTPPQLDSDGTYFVYSKLSVDRSHWQRGNTYTCSVSHEALHRHHTQKSLTQSPGK
Turning to B3, the Kd in test [1] stood at 1520 nM; in test [2] it was 11.3 nM.

B4: feline IgG1a mutant ID No. 268: S252F, S434H, Q311W (antibody, part only; not given: Variable domains, not shown: another chain or arm of the molecule)
constant: ASTTAPSVFPLAPSCGTTSGATVALACLVLGYFPEPVTVSWNSGALTSGVHTFPAVLQASGLYSLSSMVTVPSSRWLSDTFTCNVAHPPSNTKVDKTVRKTDHPPGPKPCDCPKCPPPEMLGGPSIFIFPPKPKDTLFISRTPEVTCLVVDLGPDDSDVQITWFVDNTQVYTAKTSPREEQFNSTYRVVSVLPILHWDWLKGKEFKCKVNSKSLPSPIERTISKAKGQPHEPQVYVLPPAQEELSRNKVSVTCLIKSFHPPDIAVEWEITGQPEPENNYRTTPPQLDSDGTYFVYSKLSVDRSHWQRGNTYTCSVSHEALHHHHTQKSLTQSPGK
Consider B4, for which the values for the dissociation constant (Kd) in test [1] and in test [2] were 10700 nM and 14.3 nM, respectively.

B5: feline IgG1a mutant ID No. 257: S428M, S434Y (antibody, part only; not given: Variable domains, not shown: another chain or arm of the molecule)
constant: ASTTAPSVFPLAPSCGTTSGATVALACLVLGYFPEPVTVSWNSGALTSGVHTFPAVLQASGLYSLSSMVTVPSSRWLSDTFTCNVAHPPSNTKVDKTVRKTDHPPGPKPCDCPKCPPPEMLGGPSIFIFPPKPKDTLSISRTPEVTCLVVDLGPDDSDVQITWFVDNTQVYTAKTSPREEQFNSTYRVVSVLPILHQDWLKGKEFKCKVNSKSLPSPIERTISKAKGQPHEPQVYVLPPAQEELSRNKVSVTCLIKSFHPPDIAVEWEITGQPEPENNYRTTPPQLDSDGTYFVYSKLSVDRSHWQRGNTYTCSVMHEALHYHHTQKSLTQSPGK
For the molecule B5, the results for the Kd in test [1] and in test [2] were 21.9 nM and 0.264 nM, respectively.

B6: feline IgG1a mutant ID No. 271: S252F, S434Y, Q311W (antibody, part only; not given: Variable domains, not shown: another chain or arm of the molecule)
constant: ASTTAPSVFPLAPSCGTTSGATVALACLVLGYFPEPVTVSWNSGALTSGVHTFPAVLQASGLYSLSSMVTVPSSRWLSDTFTCNVAHPPSNTKVDKTVRKTDHPPGPKPCDCPKCPPPEMLGGPSIFIFPPKPKDTLFISRTPEVTCLVVDLGPDDSDVQITWFVDNTQVYTAKTSPREEQFNSTYRVVSVLPILHWDWLKGKEFKCKVNSKSLPSPIERTISKAKGQPHEPQVYVLPPAQEELSRNKVSVTCLIKSFHPPDIAVEWEITGQPEPENNYRTTPPQLDSDGTYFVYSKLSVDRSHWQRGNTYTCSVSHEALHYHHTQKSLTQSPGK
For the molecule B6, the Kd in test [1] is 6.21 nM; in test [2] it was 0.0969 nM.

B7: feline IgG1a mutant ID No. 277: S252R, S434W (antibody, part only; not given: Variable domains, not shown: another chain or arm of the molecule)
constant: ASTTAPSVFPLAPSCGTTSGATVALACLVLGYFPEPVTVSWNSGALTSGVHTFPAVLQASGLYSLSSMVTVPSSRWLSDTFTCNVAHPPSNTKVDKTVRKTDHPPGPKPCDCPKCPPPEMLGGPSIFIFPPKPKDTLRISRTPEVTCLVVDLGPDDSDVQITWFVDNTQVYTAKTSPREEQFNSTYRVVSVLPILHQDWLKGKEFKCKVNSKSLPSPIERTISKAKGQPHEPQVYVLPPAQEELSRNKVSVTCLIKSFHPPDIAVEWEITGQPEPENNYRTTPPQLDSDGTYFVYSKLSVDRSHWQRGNTYTCSVSHEALHWHHTQKSLTQSPGK
For the molecule B7, the equilibrium dissociation constant (Kd) was determined as 6600 nM in test [1] and 7.1 nM in test [2].

B8: feline IgG1a mutant ID No. 274: S252R, S434H, Q311W (antibody, part only; not given: Variable domains, not shown: another chain or arm of the molecule)
constant: ASTTAPSVFPLAPSCGTTSGATVALACLVLGYFPEPVTVSWNSGALTSGVHTFPAVLQASGLYSLSSMVTVPSSRWLSDTFTCNVAHPPSNTKVDKTVRKTDHPPGPKPCDCPKCPPPEMLGGPSIFIFPPKPKDTLRISRTPEVTCLVVDLGPDDSDVQITWFVDNTQVYTAKTSPREEQFNSTYRVVSVLPILHWDWLKGKEFKCKVNSKSLPSPIERTISKAKGQPHEPQVYVLPPAQEELSRNKVSVTCLIKSFHPPDIAVEWEITGQPEPENNYRTTPPQLDSDGTYFVYSKLSVDRSHWQRGNTYTCSVSHEALHHHHTQKSLTQSPGK
In the case of B8, the Kd in test [1] is 3850 nM; in test [2], 5.62 nM.

B9: feline IgG1a mutant ID No. 266: Q311W, L314K, S434Y (antibody, part only; not given: Variable domains, not shown: another chain or arm of the molecule)
constant: ASTTAPSVFPLAPSCGTTSGATVALACLVLGYFPEPVTVSWNSGALTSGVHTFPAVLQASGLYSLSSMVTVPSSRWLSDTFTCNVAHPPSNTKVDKTVRKTDHPPGPKPCDCPKCPPPEMLGGPSIFIFPPKPKDTLSISRTPEVTCLVVDLGPDDSDVQITWFVDNTQVYTAKTSPREEQFNSTYRVVSVLPILHWDWKKGKEFKCKVNSKSLPSPIERTISKAKGQPHEPQVYVLPPAQEELSRNKVSVTCLIKSFHPPDIAVEWEITGQPEPENNYRTTPPQLDSDGTYFVYSKLSVDRSHWQRGNTYTCSVSHEALHYHHTQKSLTQSPGK
For the molecule B9, the equilibrium dissociation constant (Kd) in test [1] came out at 388 nM; in test [2] it was 2.8 nM.

B10: feline IgG1a mutant ID No. 270: S252F, S434W, Q311W (antibody, part only; not given: variable domains and light chain, not shown: another chain or arm of the molecule)
constant: ASTTAPSVFPLAPSCGTTSGATVALACLVLGYFPEPVTVSWNSGALTSGVHTFPAVLQASGLYSLSSMVTVPSSRWLSDTFTCNVAHPPSNTKVDKTVRKTDHPPGPKPCDCPKCPPPEMLGGPSIFIFPPKPKDTLFISRTPEVTCLVVDLGPDDSDVQITWFVDNTQVYTAKTSPREEQFNSTYRVVSVLPILHWDWLKGKEFKCKVNSKSLPSPIERTISKAKGQPHEPQVYVLPPAQEELSRNKVSVTCLIKSFHPPDIAVEWEITGQPEPENNYRTTPPQLDSDGTYFVYSKLSVDRSHWQRGNTYTCSVSHEALHWHHTQKSLTQSPGK
Consider B10, for which the Kd in test [1] was 2640 nM; in test [2], 3.68 nM.

B11: feline IgG1a mutant ID No. 267: S252F, S434F, Q311W (antibody, part only; not given: Variable domains, not shown: another chain or arm of the molecule)
constant: ASTTAPSVFPLAPSCGTTSGATVALACLVLGYFPEPVTVSWNSGALTSGVHTFPAVLQASGLYSLSSMVTVPSSRWLSDTFTCNVAHPPSNTKVDKTVRKTDHPPGPKPCDCPKCPPPEMLGGPSIFIFPPKPKDTLFISRTPEVTCLVVDLGPDDSDVQITWFVDNTQVYTAKTSPREEQFNSTYRVVSVLPILHWDWLKGKEFKCKVNSKSLPSPIERTISKAKGQPHEPQVYVLPPAQEELSRNKVSVTCLIKSFHPPDIAVEWEITGQPEPENNYRTTPPQLDSDGTYFVYSKLSVDRSHWQRGNTYTCSVSHEALHFHHTQKSLTQSPGK
As for B11, the results for the Kd in test [1] and in test [2] were 4030 nM and 4.15 nM, respectively.

B12: feline IgG1a mutant ID No. 254: S428M, S434N (antibody, part only; not given: Variable domains, not shown: another chain or arm of the molecule)
constant: ASTTAPSVFPLAPSCGTTSGATVALACLVLGYFPEPVTVSWNSGALTSGVHTFPAVLQASGLYSLSSMVTVPSSRWLSDTFTCNVAHPPSNTKVDKTVRKTDHPPGPKPCDCPKCPPPEMLGGPSIFIFPPKPKDTLSISRTPEVTCLVVDLGPDDSDVQITWFVDNTQVYTAKTSPREEQFNSTYRVVSVLPILHQDWLKGKEFKCKVNSKSLPSPIERTISKAKGQPHEPQVYVLPPAQEELSRNKVSVTCLIKSFHPPDIAVEWEITGQPEPENNYRTTPPQLDSDGTYFVYSKLSVDRSHWQRGNTYTCSVMHEALHNHHTQKSLTQSPGK
With B12, the Kd is 8.83 nM in test [1] and 10.6 nM in test [2].

B13: feline IgG1a mutant ID No. 273: S252R, S434F, Q311W (antibody, part only; not given: Variable domains, not shown: another chain or arm of the molecule)
constant: ASTTAPSVFPLAPSCGTTSGATVALACLVLGYFPEPVTVSWNSGALTSGVHTFPAVLQASGLYSLSSMVTVPSSRWLSDTFTCNVAHPPSNTKVDKTVRKTDHPPGPKPCDCPKCPPPEMLGGPSIFIFPPKPKDTLRISRTPEVTCLVVDLGPDDSDVQITWFVDNTQVYTAKTSPREEQFNSTYRVVSVLPILHWDWLKGKEFKCKVNSKSLPSPIERTISKAKGQPHEPQVYVLPPAQEELSRNKVSVTCLIKSFHPPDIAVEWEITGQPEPENNYRTTPPQLDSDGTYFVYSKLSVDRSHWQRGNTYTCSVSHEALHFHHTQKSLTQSPGK
As for B13, the results for the Kd in test [1] and in test [2] were 4760 nM and 4.77 nM, respectively.

B14: feline IgG1a mutant ID No. 256: S428M, S434W (antibody, part only; not given: variable domains and light chain, not shown: another chain or arm of the molecule)
constant: ASTTAPSVFPLAPSCGTTSGATVALACLVLGYFPEPVTVSWNSGALTSGVHTFPAVLQASGLYSLSSMVTVPSSRWLSDTFTCNVAHPPSNTKVDKTVRKTDHPPGPKPCDCPKCPPPEMLGGPSIFIFPPKPKDTLSISRTPEVTCLVVDLGPDDSDVQITWFVDNTQVYTAKTSPREEQFNSTYRVVSVLPILHQDWLKGKEFKCKVNSKSLPSPIERTISKAKGQPHEPQVYVLPPAQEELSRNKVSVTCLIKSFHPPDIAVEWEITGQPEPENNYRTTPPQLDSDGTYFVYSKLSVDRSHWQRGNTYTCSVMHEALHWHHTQKSLTQSPGK
On to B14, for which the Kd in test [1] came to 31.6 nM; in test [2] it was 0.193 nM.

B15: feline IgG1a mutant ID No. 272: S252R, S434F (antibody, part only; not given: variable domains, not shown: another chain or arm of the molecule)
constant: ASTTAPSVFPLAPSCGTTSGATVALACLVLGYFPEPVTVSWNSGALTSGVHTFPAVLQASGLYSLSSMVTVPSSRWLSDTFTCNVAHPPSNTKVDKTVRKTDHPPGPKPCDCPKCPPPEMLGGPSIFIFPPKPKDTLRISRTPEVTCLVVDLGPDDSDVQITWFVDNTQVYTAKTSPREEQFNSTYRVVSVLPILHQDWLKGKEFKCKVNSKSLPSPIERTISKAKGQPHEPQVYVLPPAQEELSRNKVSVTCLIKSFHPPDIAVEWEITGQPEPENNYRTTPPQLDSDGTYFVYSKLSVDRSHWQRGNTYTCSVSHEALHFHHTQKSLTQSPGK
Take B15: the Kd in test [1] was determined as 11900 nM; in test [2], 7.96 nM.
